This is an account of results in US20240309103A1.

Assay [1] concerns the target mNPR1-mFc:hANP complex (mouse; human) (UniProt P01160). As to the kind of experiment: SPR Biacore, mAb captured by anti-human Fc, 25C.
Assay [2] deals with mNPR1-mFc:hBNP complex (mouse; human) (UniProt P16860). As to the kind of experiment: SPR Biacore, mAb captured by anti-human Fc, 25C. Background: SPR reads the build-up and loss of mass on a sensor chip optically.
Assay [3] addresses mNPR1-mFc:hANP complex (mouse; human) (UniProt P01160). As to the kind of experiment: SPR Biacore, mAb captured by anti-human Fc, 37C.
Assay [4] addresses mNPR1-mFc:hBNP complex (mouse; human) (UniProt P16860). As to the kind of experiment: SPR Biacore, mAb captured by anti-human Fc, 37C.
Assay [5] deals with human NPR1 on HEK293/hNPR1.myc.DDK cells (0 hANP) (human) (UniProt P16066). Kind of assay: cell-based or functional assay.
Assay [6] has as its target human NPR1 on HEK293/hNPR1.myc.DDK cells (no hANP added) (human) (UniProt P16066). As to the kind of experiment: cell-based or functional assay.
Assay [7] has as its target human NPR1 on HEK293/hNPR1.myc.DDK cells (0 hANP) (human) (UniProt P16066). Kind of assay: ECL cell binding (MSD), 0 hANP.
The target in assay [8] is mNPR1-mFc:hANP complex (mouse; human) (UniProt P01160). Kind of assay: SPR Biacore, mAb captured by anti-human Fc, 37C; kinetics IC* (inconclusive).
Assay [9] has as its target mNPR1-mFc:hBNP complex (mouse; human) (UniProt P16860). The assay is described as above.

Chain of human NPR1 on HEK293/hNPR1.myc.DDK cells (0 hANP) (human) (P16066 33-1061): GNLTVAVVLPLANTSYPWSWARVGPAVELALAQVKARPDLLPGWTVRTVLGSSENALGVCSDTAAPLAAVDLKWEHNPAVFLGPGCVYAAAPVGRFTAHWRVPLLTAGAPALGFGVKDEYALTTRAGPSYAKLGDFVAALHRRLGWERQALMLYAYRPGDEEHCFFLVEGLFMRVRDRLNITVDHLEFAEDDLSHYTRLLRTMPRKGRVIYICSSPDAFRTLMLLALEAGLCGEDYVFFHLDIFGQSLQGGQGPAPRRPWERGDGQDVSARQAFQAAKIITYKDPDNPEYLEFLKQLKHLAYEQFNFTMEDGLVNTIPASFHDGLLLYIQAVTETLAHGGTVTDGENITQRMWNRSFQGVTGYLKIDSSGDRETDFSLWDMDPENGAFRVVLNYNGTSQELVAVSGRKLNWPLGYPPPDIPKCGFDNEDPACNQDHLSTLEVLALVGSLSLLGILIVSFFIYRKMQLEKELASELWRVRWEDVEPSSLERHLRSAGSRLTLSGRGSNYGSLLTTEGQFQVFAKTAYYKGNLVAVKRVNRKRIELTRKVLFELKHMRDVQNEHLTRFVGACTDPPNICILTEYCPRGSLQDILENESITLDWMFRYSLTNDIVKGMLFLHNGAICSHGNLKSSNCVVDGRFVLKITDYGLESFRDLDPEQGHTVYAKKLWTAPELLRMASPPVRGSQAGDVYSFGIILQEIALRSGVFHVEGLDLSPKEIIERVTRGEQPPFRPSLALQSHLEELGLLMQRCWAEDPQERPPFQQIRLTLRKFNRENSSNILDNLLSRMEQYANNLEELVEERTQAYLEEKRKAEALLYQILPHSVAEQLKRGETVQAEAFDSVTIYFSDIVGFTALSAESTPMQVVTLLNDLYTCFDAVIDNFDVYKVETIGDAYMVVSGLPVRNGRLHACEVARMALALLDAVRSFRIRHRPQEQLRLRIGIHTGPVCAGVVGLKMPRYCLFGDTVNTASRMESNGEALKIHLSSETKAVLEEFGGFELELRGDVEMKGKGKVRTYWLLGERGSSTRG
Chain of human NPR1 on HEK293/hNPR1.myc.DDK cells (no hANP added) (human) (P16066 33-1061): as above

B1: mAb22035 (antibody, human IgG4, V domains shown)
VH: EVQLVESGGGLVQPGRSLRLSCAASGFTFDDYAMHWVRQAPGKGLEWVSGISWNSGTIGYADSVKGRFTMSRDNAKNSLYLQMNSLRPEDTALYYCAKDMGVSLALWGAFDIWGQGTMVTVSS
VL: DIQMTQSPSSLSASVGDKVTITCRASQNIRTYLNWYQQKPGKAPKVLISTASSLQSGVPSRFSGSGSGTDFTLTISSLQPEDFAVFYCQQSFGIPRTFGQGTKVEIK
B1: the 100 nM Ag Bound (RU) worked out at 0 RU in [1], 0 RU in assay [2], 1 RU in assay [3] and 1 RU in [4].

B2: mAb25502 (antibody, human IgG4, V domains shown)
VH: QLQLQESGPGLVKPSETLSLTCTVSGGSISSSSYYWGWIRQPPGKGLEWIGSIYYSGSPYYIPSLKSRVTISVDTSKNQFSLKLSSVTAADTAMYYCARQGRGIARAGPFDYWGQGTLVTVSS
VL: DIQMTQSPSSLSASVGDRVTITCRASQGISNYLAWYQEKPGKVPKLLIYAASTLQSGVPSRFSGSGSGTDFTLTITSLQSEDVATYYCQKYNSAPPWTFGQGTKVEIK
By Kd is commonly meant the concentration at which binding is half-saturated. Low values mean higher affinity, high ones lower affinity. As usually defined, the koff is the first-order rate constant of dissociation. In general, kon refers to the rate constant with which the complex forms. A high value points to fast association. One may read the t½ as the time needed for the level to fall by half in the phase considered. Turning to B2, in assay [5], the % Activation (vs ANP max), Expt 1 worked out at 92.9%; the % Activation (vs. ANP max), Expt II was 110%; the EC50 (nM), calcium flux, Expt 1 came out at 161 nM; the EC50 (nM), calcium flux, Expt II is above 200 nM. In assay [6], this molecule gave an EC50 of Ca2+ flux activation, Expt II above 200 nM. In addition, the Ratio at 3.7 nM Ab concentration of Cell Binding Signal (RLU) to HEK293/hNPR1.myc.DKK relative to parental HEK293 in [7] came to 1. Further, in assay [1], the 100 nM Ag Bound (RU) stood at 25 RU, the Kd stood at 337 nM, the koff was 0.0799 s⁻¹ and the kon came to 237000 M⁻¹ s⁻¹. Moreover, the t½ in assay [1] is 0.14 min. Also, in assay [2], the 100 nM Ag Bound (RU) is 25 RU, the Kd amounted to 215 nM, the koff came to 0.0503 s⁻¹ and the kon came out at 234000 M⁻¹ s⁻¹. In assay [2], this molecule showed a t½ of 0.23 min. In [3], this molecule displayed a 100 nM Ag Bound (RU) of 35 RU, a Kd of 334 nM, a koff of 0.0883 s⁻¹ and a kon of 264000 M⁻¹ s⁻¹. Besides, the t½ in assay [3] was determined as 0.13 min. In assay [4], the 100 nM Ag Bound (RU) was determined as 34 RU, the Kd was 342 nM, the koff was 0.0998 s⁻¹ and the kon came to 291000 M⁻¹ s⁻¹. This molecule also yielded a t½ in [4] of 0.12 min.

B3: mAb22809 (antibody, human IgG4, V domains shown)
VH: QLQLRESGPGLVKPSETLSLTCTVSGGSINDNSFFWDWIRQTPGRGLEWIGNIFFDGNTYYTPSLKSRVIISVDMSQNQFSLRLTSVTAADTALYYCARHKRSMTAWGFFDYWGQGTLVTVSS
VL: DIQMTQSPSSLSASVGDRVTITCRASKRINTYLNWYQQKPGKAPKVLIYSASNLQSGVPSRFSGSGSGTDFTLTINSLQPEDFATYFCQQSFSAPPITFGQGTRLEIK
As to B3, the 100 nM Ag Bound (RU) stood at 0 RU in assay [1], 1 RU in [2], 1 RU in [3] and 1 RU in assay [4].

B4: mAb25497 (antibody, human IgG4, V domains shown)
VH: QVQLVQSGAEVKEPGASVKVSCKASGYTFTDYYIHWVRQAPGQGLEWMGWINLNSGGKNHAQKFQGRVTVTSDTSINTAYIELGRLRGDDTAVYYCSRGGGSHYYYYYHGMDVWGQGTTVTVSS
VL: DIQMTQSPSSLSASVGDRITITCRASHSIDSYLNWYQQKPGKAPKLLIYPASTLQSGVPSRFSGSGSGTDFTLTISSLQPEDSAIYYCQQSYSTPLTFGGGTKVEIK
Regarding B4, the 100 nM Ag Bound (RU) in assay [1] was determined as 1 RU; in assay [2] it was 2 RU; in assay [3], 1 RU; in assay [4] it was 2 RU.

B5: mAb25508 (antibody, human IgG4, V domains shown)
VH: EVQLVESGGGVVRPGGSLRLSCAASGFNVDDYGMSWVRQIPGKGLEWISGINWNGGRIYYADSMKGRITISRDNAKNSLYLQMNSLRAEDTALYHCVRDQWLVRGLDYWGQGTLVTVSS
VL: DIQMTQSPSSLSASVGDRVTITCRASQGIYNYLAWFQQKPGKAPKSLIYAASSLQSGVPSKFSGSGSGTDFTLTISSLQPEDFATYYCQQYNTYPYTFGQGTKLEIK
With B5, the 100 nM Ag Bound (RU) turned out to be 0 RU in [1], 1 RU in assay [2], 0 RU in assay [3] and 1 RU in assay [4].

B6: mAb22805 (antibody, human IgG4, V domains shown)
VH: QVQLVESGGGVVQPGRSLRLSCAASGFTFSTYGMHWVRQAPGKGLEWVALIWNDGSNKYYADSVKGRFTISRDNSKNTLDLQMNSLRAEDTAVYYCARLNTRITGTTNLDYWGQGTLVTVSS
VL: DIQMTQSPSSLSASVGDRVTVSCRASQSIANYLNWYQQKPGKAPNLLIYGAYTLQSGVPSRFRGSGSGTDFTLTISSLQPEDFATYYCQQTYSTPPITFGQGTRLEIK
Regarding B6, in assay [1], the 100 nM Ag Bound (RU) is 18 RU, the Kd came out at 424 nM, the koff stood at 0.0839 s⁻¹ and the kon worked out at 198000 M⁻¹ s⁻¹. In assay [1], this molecule yielded a t½ of 0.14 min. Besides, in assay [2], the 100 nM Ag Bound (RU) stood at 21 RU, the Kd was found to be 445 nM, the koff came to 0.0682 s⁻¹ and the kon is 153000 M⁻¹ s⁻¹. Also, in assay [2], the t½ stood at 0.17 min. This molecule returned a 100 nM Ag Bound (RU) in assay [8] of 15 RU. In assay [9], this molecule registered a 100 nM Ag Bound (RU) of 17 RU.

B7: mAb25491 (antibody, human IgG4, V domains shown)
VH: QVQLVQSGAEVMKPGASVKVSCKASGYTFTGYYIHWVRQAPGQGLEWMGWITPNSGATNYAQKFQGRVTLTRDTSISTAYMELTRLKSDDTAVYYCARGGQLEFFYYYYGMDVWGQGTTVTVSS
VL: DIQMTQSPSSLSASAGDRVTITCRASQSIDSYLNWYQQKPGKAPKLLISATSGFQSGVPSRFSGSGSGTDFTLTISSLQPEDFGTYYCQQSYTTPITFGQGTRLEIK
For the molecule B7, the 100 nM Ag Bound (RU) in assay [1] was 1 RU; in assay [2], 5 RU; in assay [3], 1 RU; in assay [4], 4 RU.

B8: mAb22033 (antibody, human IgG4, V domains shown)
VH: QVQLVQSGAEVKKPGASVTVSCKASGYTFTDYYMHWVRQAPGQGLEWMGWIKPNSGGTNSAQRFQGRITMTWDTSISTAYMELSRLRSDDTAVYYCSRGGPVMNYYYYYGMDVWGQGTTVTVSS
VL: NIQMTQSPSSLSASVGDRVTITCRASQSIDSYLNWYQQKPGKAPKLLIYVASSLQSGVPSRFSGSGSGKDFTLTISSLQPEDFATYYCQQSYSIPTFGQGTRLEIK
For the molecule B8, the 100 nM Ag Bound (RU) in [1] turned out to be 1 RU; in [2], 5 RU; in [3] it was 2 RU; in [4], 4 RU.
